Article PMC5669500, “Scaffolding the cup-shaped double membrane in autophagy” (PLoS Computational Biology, 2017)

Tests used:
Assay in all cases: pull-down; 20 μg GST-Atg13 (351–458) immobilised on 30 μL Glutathione Sepharose 4B; Atg17-Atg31-Atg29 complex at 10 μM; 4°C, 1 hour; 20 mM Tris pH 8, 150 mM NaCl, 0.1 mM TCEP; 3 washes; SDS-PAGE
Conditions in all cases: both partners purified
[1] = biological target: T1, Atg17-Atg31-Atg29 complex with Atg17 mutant M5 (K92D/L141D) (Saccharomyces cerevisiae, UniProt Q06410 1-417; Q12421 1-196; Q12092 1-213, K92D | L141D)
T1 construct: Atg17, Saccharomyces cerevisiae; Atg31, Saccharomyces cerevisiae; Atg29, Saccharomyces cerevisiae; a TEV cleavage site follows the His6 tag; Mutations introduced into the Atg17-Atg31-Atg29 construct by quick-change mutagenesis; source: E. coli BL21 (DE3), co-expressed from pST39, purified (Ni-NTA, Superose 6); copies: 2 + +
T1 sequence (looked up) 1: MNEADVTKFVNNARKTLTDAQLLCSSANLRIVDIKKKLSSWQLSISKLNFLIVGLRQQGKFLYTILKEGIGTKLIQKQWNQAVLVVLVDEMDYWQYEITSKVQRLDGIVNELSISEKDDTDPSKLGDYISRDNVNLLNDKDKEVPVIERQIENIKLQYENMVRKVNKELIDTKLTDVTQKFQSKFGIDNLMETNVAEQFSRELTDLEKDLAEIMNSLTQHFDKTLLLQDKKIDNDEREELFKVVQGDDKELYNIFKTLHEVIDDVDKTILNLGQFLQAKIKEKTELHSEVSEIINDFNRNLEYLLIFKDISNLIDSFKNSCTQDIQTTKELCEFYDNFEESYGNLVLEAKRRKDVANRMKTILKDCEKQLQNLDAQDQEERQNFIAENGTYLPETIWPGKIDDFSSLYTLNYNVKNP
T1 sequence (looked up) 2: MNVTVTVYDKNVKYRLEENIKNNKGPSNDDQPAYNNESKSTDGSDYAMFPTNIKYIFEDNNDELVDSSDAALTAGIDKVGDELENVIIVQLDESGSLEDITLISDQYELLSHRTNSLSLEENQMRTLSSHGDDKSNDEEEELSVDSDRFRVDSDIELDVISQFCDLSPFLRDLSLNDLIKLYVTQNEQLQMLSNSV
T1 sequence (looked up) 3: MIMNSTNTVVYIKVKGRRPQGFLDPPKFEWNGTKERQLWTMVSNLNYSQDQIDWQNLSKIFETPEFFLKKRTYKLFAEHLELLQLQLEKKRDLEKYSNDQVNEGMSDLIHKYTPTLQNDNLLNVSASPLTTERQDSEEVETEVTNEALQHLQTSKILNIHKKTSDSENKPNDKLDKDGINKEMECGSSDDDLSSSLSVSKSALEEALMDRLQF

[2] = biological target: T2, Atg17-Atg31-Atg29 complex with Atg17 mutant M3 (K8D/R14D/K249D) (Saccharomyces cerevisiae, UniProt Q06410 1-417; Q12421 1-196; Q12092 1-213, K8D | R14D | K249D)
T2 construct: Atg17, Saccharomyces cerevisiae; Atg31, Saccharomyces cerevisiae; Atg29, Saccharomyces cerevisiae; a TEV cleavage site follows the His6 tag; Mutations introduced into the Atg17-Atg31-Atg29 construct by quick-change mutagenesis; source: E. coli BL21 (DE3), co-expressed from pST39, purified (Ni-NTA, Superose 6); copies: 2 + +
T2 sequence (looked up) 1: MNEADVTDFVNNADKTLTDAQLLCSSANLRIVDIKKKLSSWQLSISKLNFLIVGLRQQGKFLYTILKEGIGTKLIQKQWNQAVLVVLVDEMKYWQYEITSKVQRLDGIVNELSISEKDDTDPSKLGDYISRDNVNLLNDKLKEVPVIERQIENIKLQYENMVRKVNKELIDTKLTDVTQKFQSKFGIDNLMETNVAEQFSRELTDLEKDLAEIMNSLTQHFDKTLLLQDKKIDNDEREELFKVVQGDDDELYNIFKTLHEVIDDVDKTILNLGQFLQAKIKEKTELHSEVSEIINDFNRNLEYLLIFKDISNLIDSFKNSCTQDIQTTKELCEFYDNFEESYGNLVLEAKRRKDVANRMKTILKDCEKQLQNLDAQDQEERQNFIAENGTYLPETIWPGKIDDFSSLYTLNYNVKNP
T2 sequence (looked up) 2: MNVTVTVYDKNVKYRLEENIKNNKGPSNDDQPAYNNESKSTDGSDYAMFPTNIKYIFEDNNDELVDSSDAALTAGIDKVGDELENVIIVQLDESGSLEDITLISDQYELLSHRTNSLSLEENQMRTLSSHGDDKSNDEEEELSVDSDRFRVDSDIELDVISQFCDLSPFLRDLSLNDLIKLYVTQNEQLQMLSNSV
T2 sequence (looked up) 3: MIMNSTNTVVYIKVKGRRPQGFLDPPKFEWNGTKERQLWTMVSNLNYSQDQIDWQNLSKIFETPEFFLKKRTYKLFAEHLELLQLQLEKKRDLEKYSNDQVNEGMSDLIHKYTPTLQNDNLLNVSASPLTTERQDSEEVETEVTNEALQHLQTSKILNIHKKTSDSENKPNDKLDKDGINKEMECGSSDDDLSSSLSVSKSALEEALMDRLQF

[3] = biological target: T3, Atg17-Atg31-Atg29 complex with Atg17 mutant M1 (K318D/Q326D/K329D) (Saccharomyces cerevisiae, UniProt Q06410 1-417; Q12421 1-196; Q12092 1-213, K318D | Q326D | K329D)
T3 construct: Atg17, Saccharomyces cerevisiae; Atg31, Saccharomyces cerevisiae; Atg29, Saccharomyces cerevisiae; a TEV cleavage site follows the His6 tag; Mutations introduced into the Atg17-Atg31-Atg29 construct by quick-change mutagenesis; source: E. coli BL21 (DE3), co-expressed from pST39, purified (Ni-NTA, Superose 6); copies: 2 + +
T3 sequence (looked up) 1: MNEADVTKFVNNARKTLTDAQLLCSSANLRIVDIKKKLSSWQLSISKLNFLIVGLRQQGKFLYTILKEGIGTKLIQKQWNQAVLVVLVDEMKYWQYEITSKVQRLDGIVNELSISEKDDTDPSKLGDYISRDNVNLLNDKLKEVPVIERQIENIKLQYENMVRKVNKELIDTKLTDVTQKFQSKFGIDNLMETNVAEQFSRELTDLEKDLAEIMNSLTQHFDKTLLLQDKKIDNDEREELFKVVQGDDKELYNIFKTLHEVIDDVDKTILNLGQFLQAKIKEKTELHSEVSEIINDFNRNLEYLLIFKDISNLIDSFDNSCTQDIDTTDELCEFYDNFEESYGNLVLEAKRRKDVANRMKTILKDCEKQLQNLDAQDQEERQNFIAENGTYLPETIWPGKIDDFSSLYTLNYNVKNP
T3 sequence (looked up) 2: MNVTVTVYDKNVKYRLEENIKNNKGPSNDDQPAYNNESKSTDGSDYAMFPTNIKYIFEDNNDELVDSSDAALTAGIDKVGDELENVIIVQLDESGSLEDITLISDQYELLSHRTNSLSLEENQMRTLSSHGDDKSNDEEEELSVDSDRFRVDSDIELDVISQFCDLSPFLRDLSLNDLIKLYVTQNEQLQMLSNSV
T3 sequence (looked up) 3: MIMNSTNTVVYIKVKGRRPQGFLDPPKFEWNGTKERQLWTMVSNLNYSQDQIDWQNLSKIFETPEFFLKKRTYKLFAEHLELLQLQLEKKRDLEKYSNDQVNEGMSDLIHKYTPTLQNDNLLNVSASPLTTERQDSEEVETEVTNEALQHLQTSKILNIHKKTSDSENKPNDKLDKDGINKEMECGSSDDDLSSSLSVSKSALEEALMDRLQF

Measured: binding result

B1: GST-Atg13 (351–458) (domain or fragment, Saccharomyces cerevisiae, UniProt Q06628 351-458, looked up)
chain: TRANSFEPQSWQKKVYPISRPVQPFKVGSIGSQSASRNPSNSSFFNQPPVHRPSMSSNYGPQMNIEGTSVGSTSKYSSSFGNIRRHSSVKTTENAEKVSKAVKSPLQP
notes: a TEV cleavage site follows the GST tag; source: recombinant from pGST2 vector, purified (Glutathione Sepharose 4B, HiLoad Superdex 200 16/60); not shown: GST, N-terminal, kept
binds: all assays above
